The text below walks through data of US20260234241A1.

Where two headings read alike, the source gives them in different places.

The target of assay [1] is human BCMA (on cells) (human) (UniProt Q02223). Briefly: FACS on human BCMA-CHOK1 cells.
Assay [2] shares this target. Briefly: FACS on human BCMA-CHOK1 cells. The source holds these as a separate data set.
The target in assay [3] is human GPRC5D (human) (UniProt Q9NZD1). Briefly: FACS on human GPRC5D-CHOK1 cells.
For assay [4], the target named is cynomolgus monkey BCMA (on cells) (cynomolgus monkey). The assay can be described thus: FACS on cynomolgus BCMA-CHOK1 cells.
Assay [5] has the same target. Briefly: FACS on cynomolgus BCMA-CHOK1 cells. This is another data set of the same source.
For assay [6], the target named is cynomolgus monkey GPRC5D (cynomolgus monkey). Briefly: FACS on cynomolgus GPRC5D-CHOK1 cells.
The target is the same in assay [7]. The assay can be described thus: FACS on cynomolgus GPRC5D-CHOK1 cells. This is another data set of the same source.
In assay [8] the target is human GPRC5D (human) (UniProt Q9NZD1). The assay can be described thus: FACS on NCI-H929 cells (GPRC5D-expressing).
For assay [9], the target named is cynomolgus monkey CD3 (on cyno PBMCs) (cynomolgus monkey) (UniProt Q95LI5). Briefly: FACS on cyno PBMCs.
Assay [10] concerns the target human CD3 (on Jurkat cells and human PBMCs) (human) (UniProt P07766). The assay can be described thus: FACS on human PBMCs.
The target is the same in assay [11]. The assay can be described thus: FACS on Jurkat cells.
The target of the next assay is soluble BCMA. Briefly: cell-based or functional assay.
The target in assay [12] is human BCMA (on cells) (human) (UniProt Q02223). The assay can be described thus: FACS on NCI-H929 cells (express BCMA and GPRC5D).
Assay [13] shares this target. The assay can be described thus: FACS on RPMI8226 cells (express BCMA and GPRC5D).
Assay [14] concerns the target NCI-H929 tumor cells expressing the dual targets BCMA and GPRC5D. The assay can be described thus: FACS on NCI-H929 cells (express BCMA and GPRC5D).
Assay [15] concerns the target RPMI8226 tumor cells expressing the dual targets BCMA and GPRC5D. The assay can be described thus: FACS on RPMI8226 cells (express BCMA and GPRC5D).

Sequence of cynomolgus monkey BCMA (on cells) (cynomolgus monkey) (Q02223 other isoform, or with tags, fused parts or gaps): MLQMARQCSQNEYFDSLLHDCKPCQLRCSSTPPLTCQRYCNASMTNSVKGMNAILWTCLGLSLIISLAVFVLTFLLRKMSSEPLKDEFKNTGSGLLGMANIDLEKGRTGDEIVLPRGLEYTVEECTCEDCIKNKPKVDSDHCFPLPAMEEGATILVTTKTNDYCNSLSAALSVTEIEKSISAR
Sequence of human CD3 (on Jurkat cells and human PBMCs) (human) (P07766 23-207): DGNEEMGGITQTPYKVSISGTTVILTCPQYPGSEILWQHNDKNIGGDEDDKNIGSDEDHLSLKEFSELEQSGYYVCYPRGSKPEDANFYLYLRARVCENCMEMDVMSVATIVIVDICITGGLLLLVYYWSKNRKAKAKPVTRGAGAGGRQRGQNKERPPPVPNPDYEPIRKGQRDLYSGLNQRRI
Sequence of human BCMA (on cells) (human) (Q02223 whole entry): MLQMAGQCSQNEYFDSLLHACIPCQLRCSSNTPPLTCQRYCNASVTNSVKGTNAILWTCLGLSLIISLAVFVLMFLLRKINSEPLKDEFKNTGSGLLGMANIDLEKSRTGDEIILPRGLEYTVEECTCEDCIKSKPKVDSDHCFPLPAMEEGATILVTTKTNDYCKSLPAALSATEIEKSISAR
Sequence of human GPRC5D (human) (Q9NZD1 whole entry): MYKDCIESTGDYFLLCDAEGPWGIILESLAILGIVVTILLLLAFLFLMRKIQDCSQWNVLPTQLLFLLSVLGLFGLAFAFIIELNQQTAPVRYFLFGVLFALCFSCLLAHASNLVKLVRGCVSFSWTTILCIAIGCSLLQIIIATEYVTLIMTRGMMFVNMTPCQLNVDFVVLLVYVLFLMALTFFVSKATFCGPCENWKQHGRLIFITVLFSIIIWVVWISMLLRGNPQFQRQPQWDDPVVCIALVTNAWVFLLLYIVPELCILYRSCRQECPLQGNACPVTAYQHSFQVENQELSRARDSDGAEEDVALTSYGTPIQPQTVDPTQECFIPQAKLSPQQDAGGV
Sequence of cynomolgus monkey GPRC5D (cynomolgus monkey) (Q9NZD1 other isoform, or with tags, fused parts or gaps): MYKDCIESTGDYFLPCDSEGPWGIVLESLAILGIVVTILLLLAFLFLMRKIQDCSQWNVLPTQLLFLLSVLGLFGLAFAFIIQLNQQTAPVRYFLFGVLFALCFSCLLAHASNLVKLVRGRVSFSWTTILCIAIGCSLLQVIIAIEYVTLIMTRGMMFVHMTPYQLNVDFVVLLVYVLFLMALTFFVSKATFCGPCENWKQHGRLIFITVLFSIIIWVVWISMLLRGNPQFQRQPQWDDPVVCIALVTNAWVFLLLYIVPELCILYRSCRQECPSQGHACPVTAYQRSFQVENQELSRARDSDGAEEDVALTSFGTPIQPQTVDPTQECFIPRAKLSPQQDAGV
Sequence of cynomolgus monkey CD3 (on cyno PBMCs) (cynomolgus monkey) (Q95LI5 22-198): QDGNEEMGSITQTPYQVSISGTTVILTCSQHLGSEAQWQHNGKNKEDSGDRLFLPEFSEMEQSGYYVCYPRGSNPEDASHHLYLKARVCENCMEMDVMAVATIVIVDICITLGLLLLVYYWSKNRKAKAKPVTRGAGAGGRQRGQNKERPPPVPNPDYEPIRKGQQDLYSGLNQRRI

IgG1 AA (antibody): the Top MFI in assay [1] was determined as 89.1; in assay [2], 232; with human GPRC5D (human) [3] it was 36; in [4], 82.6; in [5], 382; in assay [6], 85. The Top MFI was determined as 1840 in assay [7] and 178 with human GPRC5D (human) [8].
With “Teclistamab analogue (BCMA/CD3) (bispecific antibody)”, the Top MFI was 2060 in assay [9]; 672 in assay [10]; 825 in [11]; 2280 in [1]; 160 with human GPRC5D (human) [3]; 1770 in [4]. Besides, the Top MFI in assay [12] is 669; in assay [13], 169. Also, in the assay with soluble BCMA, the Fold change of TDCC EC50 on NCI-H929 cells in the presence of 2500 ng/ml soluble BCMA amounted to 25 fold. In the assay with soluble BCMA, the Ratio (EC50) of TDCC on NCI-H929 cells, 2.5 ug/ml against 0 ug/ml soluble BCMA stood at 21 fold. Further, the fold change of the TDCC EC50 on NCI-H929 cells in the presence of 2500 ng/ml soluble BCMA in the assay with soluble BCMA came to 25 fold.
As to hIgG1 LALA isotype (antibody), the Top MFI amounted to 93.3 in [9]; 96.1 in [10]; 77.6 in assay [11]; 119 in assay [1]; 100 with human GPRC5D (human) [3]; 104 in [14]. In [15], this substance returned a Top MFI of 112.
